In patent US6596526:
Where a chain is given by its changes, count along the chain named.

B1: Furin deletion mutant Helix 10 (protein)
chain: QKVFTNTWAVRIPGGPAVANSVARKHGFLNLGQIFGDYYHFWHRGVTKRSLSPHRPRHSRLQREPQVQWLEQQVAKRRTKRDVYQEPTDPKFPQQWYLSGVTQRDLNVKAAWAQGYTGHGIVVSILDDGIEKNHPDLAGNYDPGASFDVNDQDPDPQPRYTQMNDNRHGTRCAGEVAAVANNGVCGVGVAYNARIGGVRMLDGEVTDAVEARSLGLNPNHIHIYSASWGPEDDGKTVDGPARLAEEAFFRGVSQGRGGLGSIFVWASGNGGREHDSCNCDGYTNSIYTLSISSATQFGNVPWYSEACSSTLATTYSSGNQNEKQIVTTDLRQKCTESHTGTSASAPLAAGIIALTLEANKNLTWRDMQHLVVQTSKPAHLNANDWATNGVGRKVSHSYGYGLLDAGAMVALAQNWTTVAPQRKCIIDILTEPKDIGKRLEVRKTVTACLGEPNHITRLEHAQARLTLSYNRRGDLAIHLVSPMGTRSTLLAARPHDYSADGFNDWAFMTTHSWDEDPSGEWVLEIENTSEANNYGTLTKFTLVLYGTAPEGAEMWHQAMEVHLPEVVAGLSCAFIVLVFVTVFLVLQLRSGFSFRGVKVYTMDRGLISYKGLPPEAWQEECPSDSEEDEGRGERTAFIKDQSAL
B2: Furin deletion mutant Loop 10 (protein)
chain: B1 chain with A552G, E553S, M554P, W555N, H556S, A558P, M559Y, E560D, V561G
B3: Furin deletion mutant 578-711 (protein)
chain: QKVFTNTWAVRIPGGPAVANSVARKHGFLNLGQIFGDYYHFWHRGVTKRSLSPHRPRHSRLQREPQVQWLEQQVAKRRTKRDVYQEPTDPKFPQQWYLSGVTQRDLNVKAAWAQGYTGHGIVVSILDDGIEKNHPDLAGNYDPGASFDVNDQDPDPQPRYTQMNDNRHGTRCAGEVAAVANNGVCGVGVAYNARIGGVRMLDGEVTDAVEARSLGLNPNHIHIYSASWGPEDDGKTVDGPARLAEEAFFRGVSQGRGGLGSIFVWASGNGGREHDSCNCDGYTNSIYTLSISSATQFGNVPWYSEACSSTLATTYSSGNQNEKQIVTTDLRQKCTESHTGTSASAPLAAGIIALTLEANKNLTWRDMQHLVVQTSKPAHLNANDWATNGVGRKVSHSYGYGLLDAGAMVALAQNWTTVAPQRKCIIDILTEPKDIGKRLEVRKTVTACLGEPNHITRLEHAQARLTLSYNRRGDLAIHLVSPMGTRSTLLAARPHDYSADGFNDWAFMTTHSWDEDPSGEWVLEIENTSEANNYGTLTKFTLVLYGTAPEGHLPEVVAGLSCAFIVLVFVTVFLVLQLRSGFSFRGVKVYTMDRGLISYKGLPPEAWQEECPSDSEEDEGRGERTAFIKDQSAL

The proteins below were run against recombinant von Willebrand Factor precursor, P04275.

Protein | processing of rvWF precursor (Western blot)
B1 | the R683A, Helix 10, Loop 10 and 578-711 furin constructs evidence proteolytic activity
B2 | the R683A, Helix 10, Loop 10 and 578-711 furin constructs evidence proteolytic activity
B3 | the R683A, Helix 10, Loop 10 and 578-711 furin constructs evidence proteolytic activity
